The source of these data is article PMC10364586 (Protein Science : A Publication of the Protein Society, 2023).

“And” between values parts separate entries of the source, which are not always exact repeats. Equal entries are not always repeated.

Test [1] deals with T1, PADI4 (peptidyl-arginine deiminase 4), recombinant, dimeric (human, UniProt Q9UM07 1-663). The test can be described thus: ITC. (Isothermal titration calorimetry measures the heat released or taken up as one component is titrated into another.)
T1 sequence (Q9UM07 whole entry): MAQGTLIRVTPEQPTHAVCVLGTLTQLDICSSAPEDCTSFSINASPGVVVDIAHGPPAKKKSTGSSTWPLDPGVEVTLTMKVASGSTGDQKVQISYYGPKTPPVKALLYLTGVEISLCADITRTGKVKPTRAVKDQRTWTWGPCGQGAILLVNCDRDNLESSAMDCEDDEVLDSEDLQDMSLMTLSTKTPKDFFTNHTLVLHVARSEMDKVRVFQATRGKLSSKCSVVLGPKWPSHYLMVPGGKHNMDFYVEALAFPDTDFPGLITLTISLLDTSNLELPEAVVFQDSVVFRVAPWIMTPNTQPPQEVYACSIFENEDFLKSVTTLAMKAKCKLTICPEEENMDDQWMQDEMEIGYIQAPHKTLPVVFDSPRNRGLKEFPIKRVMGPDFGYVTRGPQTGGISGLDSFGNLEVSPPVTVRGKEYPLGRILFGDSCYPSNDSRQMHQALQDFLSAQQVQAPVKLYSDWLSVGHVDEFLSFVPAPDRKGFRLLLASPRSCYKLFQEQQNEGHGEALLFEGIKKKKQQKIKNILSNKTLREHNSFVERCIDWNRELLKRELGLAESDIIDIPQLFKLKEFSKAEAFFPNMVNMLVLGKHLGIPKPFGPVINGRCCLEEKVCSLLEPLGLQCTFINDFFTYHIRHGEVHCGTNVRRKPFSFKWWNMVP
For test [2], the target named is T1, PADI4 (peptidyl-arginine deiminase 4), …. The test can be described thus: other fluorescence titration.

B1: His-tagged N-MDM2 (N-terminal region of MDM2, residues 6-125 of the intact protein) (domain or fragment, UniProt Q00987 6-125, looked up)
chain: MSVPTDGAVTTSQIPASEQETLVRPKPLLLKLLKSVGAQKDTYTMKEVLFYLGQYIMTKRLYDEKQQHIVYCSNDLLGDLFGVPSFSVKEHRKIYTMIYRNLVVVNQQESSDSGTSVSEN
modifications: 15N-labelled in the NMR experiment only
One may read the Kd as the concentration at which binding is half-saturated. In the case of B1, the Kd in test [1] is 1 ± 0.2 µM; in test [2], 5 µM and ~6 µM.
